± gives the standard deviation of the averaged measurements.
B1: library; a variant is named by its letters at N, in order (parent)
chain: AATGTTGTTGATGCAACCATAAAGTGATATTTAATAATTATTTATAATCAGCAACTTAACCACAAAACAACCATATATTGATATNTCACAAAACAACCATAANTTGATATTTTTGTGAATCGAGTATTTCAGCAAAACTACTGCAGTAAGAA

Tests used:
[1] = variants of: B1; test: relative integration efficiency (T-LR orientation) vs wild-type transposon end (log2 (normalized fold change)); transposon end mutated: left end; higher = more efficient transposition; conditions: with VchCAST RNA-guided transposition machinery (E. coli BL21(DE3) host, lacZ target)
In short: (§1)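 Barcode abundances in input plasmids and in genomic integration junctions were obtained by PCR amplification and Illumina sequencing. These came from E. coli BL21(DE3) co-transformed with a T7-driven effector plasmid and a pUC57 donor carrying 1549 left-end or 1849 right-end transposon variants, then plated with 0.1 mM IPTG at 37°C for 18 h. Relative integration efficiency is the output/input fold change, normalised to reference barcodes and log-transformed.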

[2] = variants of: B1; test: relative integration efficiency (T-RL orientation) vs wild-type transposon end (log2 (normalized fold change)); transposon end mutated: left end; higher = more efficient transposition; conditions: with VchCAST RNA-guided transposition machinery (E. coli BL21(DE3) host, lacZ target)
In short: as §1

| Variant | relative integration efficiency (log2) [1] | relative integration efficiency (log2) [2] |
| --- | --- | --- |
| CG T35A | 0.179 ± 0.22 | 0.0694 ± 0.048 |
| CG T45A A46T | -0.208 ± 0.19 | 0.192 ± 0.024 |
| CG T5G T6G | < -10 | – |
| CG A69T A70T C71G C72G | -1.93 ± 1.4 | -1.77 ± 0.77 |
| CG T78G | 0.198 ± 0.14 | -0.0793 ± 0.054 |
| CG T78C | 0.27 ± 0.3 | -0.0794 ± 0.1 |
| CG T78A | -0.0877 ± 0.12 | 0.0885 ± 0.016 |
| CG T57G | -1.94 ± 0.91 | -1.33 ± 0.56 |
| TA G24A T30A A70C T76A T86G A96C T110A T113A | 0.0588 ± 0.23 | -0.265 ± 0.38 |
| TA A23G G24T A33T T76A T78A T84A C87A A96C T112G T113C | -0.309 ± 0.24 | 0.136 ± 0.2 |
| CG T38G T39G | 0.139 ± 0.043 | -0.161 ± 0.039 |
| CG A50C G51T | -0.407 ± 0.67 | -0.196 ± 0.22 |
| CA A16C G24T T30A T104A T110A T113A | -0.532 ± 0.028 | -0.543 ± 0.56 |
| CT A22C A23C G24T T25G T76G A77C T78G T79G A102C T104G T105G | < -10 | -8.29 ± 1.2 |
| TA T76A T78G C87A T104A T110A T113A | 0.215 ± 0.49 | -0.291 ± 0.22 |
| CG T100G A101C | -3.81 ± 1.3 | -2.16 ± 0.7 |
| CG A16C G24T T30A | -0.135 ± 0.14 | -0.3 ± 0.21 |
| CG C98A | -0.338 ± 1.2 | -0.0969 ± 0.46 |
| CG A44G A46G T48G A50G C52A A53T C55A T56C T57A | -3.63 ± 2.8 | -4.04 ± 1.1 |
| CG A1C | 0.307 ± 0.19 | -0.0236 ± 0.1 |

| Variant | relative integration efficiency (log2) [1] | relative integration efficiency (log2) [2] |
| --- | --- | --- |
| CT A22C A23C T76G A77C A102C | -3.01 ± 0.15 | -3.81 ± 0.97 |
| TA A16C G24T T32G A33C T76A A77G C87T A96C T112G T113C | -0.88 ± 1.2 | -0.489 ± 0.45 |
| CG A62T C63G | -0.0229 ± 0.67 | 0.275 ± 0.072 |
| CG A75G | -0.592 ± 0.42 | -0.877 ± 0.4 |
| CG A50T G51C C52G A53T | -0.839 ± 1.2 | -0.552 ± 0.39 |
| TA A70C T76A T84A C87A A102T T111C T113C | 0.619 ± 0.14 | 0.128 ± 0.4 |
| TG A70C T76A T86G | 0.145 ± 0.46 | -0.133 ± 0.18 |
| TA G24A T30A T76A T78G C87A A96C T112G T113C | 0.0921 ± 0.22 | 0.299 ± 0.056 |
| CG A88C C89A A90C A91C | -0.0905 ± 0.58 | -0.404 ± 0.32 |
| CG G122T A123C G124T T125G | 0.252 ± 0.21 | 0.127 ± 0.054 |
| CG A101C A102C | -1.64 ± 0.96 | -1.55 ± 0.55 |
| CG A34C | 0.459 ± 0.34 | 0.215 ± 0.064 |
| CG A19T | -0.706 ± 1.6 | -0.267 ± 0.38 |
| CG A75T T76A A77T T78A | -0.0527 ± 0.32 | -0.453 ± 0.37 |
| CG C97A C98A | -1.76 ± 0.82 | -1.7 ± 0.77 |
| TG A22T G24T T31C A33C A70C T76A T86G | -0.285 ± 0.49 | -0.627 ± 0.19 |
| CG T84G | -0.943 ± 0.55 | -0.591 ± 0.3 |
| CG A11C T12G | -1.34 ± 0.53 | -0.436 ± 0.26 |
| CG T12A G13A T30A T32A A77C T86G | -0.499 ± 0.21 | -0.36 ± 0.22 |
| CG T82C | 0.362 ± 0.73 | 0.536 ± 0.29 |

| Variant | relative integration efficiency (log2) [1] | relative integration efficiency (log2) [2] |
| --- | --- | --- |
| CG T82G | -0.227 ± 0.47 | -0.597 ± 0.43 |
| CG T56A | 0.188 ± 0.11 | -0.167 ± 0.0046 |
| CG T113G T114G | -0.0365 ± 0.41 | -0.199 ± 0.073 |
| CG T116G G117T A118C A119C T120G C121A G122T A123C G124T T125G | -0.144 ± 0.39 | -0.0959 ± 0.032 |
| CG T38G | 0.138 ± 0.0017 | -0.123 ± 0.065 |
| TA A22T G24T T31C A33C A70C T76A T86G T104A T110A T113A | -0.292 ± 0.24 | -0.768 ± 0.47 |
| CG A92C A93C C94A A95C | -1.74 ± 0.33 | -1.09 ± 0.75 |
| CG A23C G24T T25G G26T | -1.99 ± 0.63 | -1.12 ± 0.49 |
| TA A16C G24T T32G A33C A70C T76A T86G A96C T110A T113A | -0.842 ± 0.018 | -0.63 ± 0.38 |
| CG A118T | -0.185 ± 0.24 | -0.0188 ± 0.11 |
| CG A16T C17G C18G A19T | -1.18 ± 1.3 | -1.61 ± 0.74 |
| CG T12A G13A T31C A77C T86G | -0.319 ± 0.56 | -0.196 ± 0.058 |
| CG A50G | -0.586 ± 0.44 | -0.168 ± 0.005 |
| CG A50C | -0.533 ± 0.31 | -0.119 ± 0.099 |
| CG A21T A22T | -0.163 ± 0.75 | -0.172 ± 0.32 |
| TA A70C T76A T86G T104G T113A | 0.359 ± 0.88 | -0.145 ± 0.22 |
| CG T105G G106T | -0.649 ± 0.86 | -1.2 ± 0.72 |
| TG A16C G24T T32G A33C T76A T78G C87A | 0.456 ± 0.7 | 0.525 ± 0.38 |

Reference: the supplement of paper PMC10201428
